Measured values from US20100256338A1.

Molecular target: EGFR on cells (H322M) (human), P00533
Assay: cell-based or functional assay

- reduction of cell growth, H322M spheroids, 7 days, 100 nM, Celltiter Glow: 77%
B1: humanized <EGFR>ICR62 (antibody, V domains shown)
VH: QVQLVQSGAEVKKPGSSVKVSCKASGFTFTDYKIHWVRQAPGQGLEWMGYFNPNSGYSTYAQKFQGRVTITADKSTSTAYMELSSLRSEDTAVYYCARLSPGGYYVMDAWGQGTTVTVSS
VL: DIQMTQSPSSLSASVGDRVTITCRASQGINNYLNWYQQKPGKAPKRLIYNTNNLQTGVPSRFSGSGSGTEFTLTISSLQPEDFATYYCLQHNSFPTFGQGTKLEIKRT
